Values quoted from earlier work as cited in article PMC10565355.
pKd: −log10 of the molar value.

Target: Fibrinogen (Homo sapiens) (UniProt P02671)
Chain of UniProt P02671 (P02671 36-866, chain 1 of 3): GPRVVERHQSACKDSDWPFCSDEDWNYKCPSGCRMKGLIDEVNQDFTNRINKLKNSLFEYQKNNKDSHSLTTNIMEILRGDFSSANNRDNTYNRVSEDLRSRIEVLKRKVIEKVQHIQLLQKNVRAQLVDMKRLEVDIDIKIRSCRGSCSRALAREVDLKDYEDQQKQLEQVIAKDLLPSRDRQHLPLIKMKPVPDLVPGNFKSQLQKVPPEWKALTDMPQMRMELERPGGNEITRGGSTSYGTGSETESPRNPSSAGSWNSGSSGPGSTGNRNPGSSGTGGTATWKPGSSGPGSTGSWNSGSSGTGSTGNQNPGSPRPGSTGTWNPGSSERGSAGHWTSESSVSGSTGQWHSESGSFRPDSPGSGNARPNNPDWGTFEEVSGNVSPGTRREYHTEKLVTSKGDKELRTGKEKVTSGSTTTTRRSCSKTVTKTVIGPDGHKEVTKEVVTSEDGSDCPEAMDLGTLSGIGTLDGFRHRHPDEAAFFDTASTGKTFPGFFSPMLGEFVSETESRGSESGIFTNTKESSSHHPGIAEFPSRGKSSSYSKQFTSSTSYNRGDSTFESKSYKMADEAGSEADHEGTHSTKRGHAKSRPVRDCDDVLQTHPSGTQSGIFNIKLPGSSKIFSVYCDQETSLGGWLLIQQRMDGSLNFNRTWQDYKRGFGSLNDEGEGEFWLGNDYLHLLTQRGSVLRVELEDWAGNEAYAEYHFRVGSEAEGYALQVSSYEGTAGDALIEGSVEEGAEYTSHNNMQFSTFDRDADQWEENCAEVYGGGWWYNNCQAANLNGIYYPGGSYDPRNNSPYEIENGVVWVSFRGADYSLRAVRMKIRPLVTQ
Chain of UniProt P02671 (P02675 45-491, chain 2 of 3, further chain): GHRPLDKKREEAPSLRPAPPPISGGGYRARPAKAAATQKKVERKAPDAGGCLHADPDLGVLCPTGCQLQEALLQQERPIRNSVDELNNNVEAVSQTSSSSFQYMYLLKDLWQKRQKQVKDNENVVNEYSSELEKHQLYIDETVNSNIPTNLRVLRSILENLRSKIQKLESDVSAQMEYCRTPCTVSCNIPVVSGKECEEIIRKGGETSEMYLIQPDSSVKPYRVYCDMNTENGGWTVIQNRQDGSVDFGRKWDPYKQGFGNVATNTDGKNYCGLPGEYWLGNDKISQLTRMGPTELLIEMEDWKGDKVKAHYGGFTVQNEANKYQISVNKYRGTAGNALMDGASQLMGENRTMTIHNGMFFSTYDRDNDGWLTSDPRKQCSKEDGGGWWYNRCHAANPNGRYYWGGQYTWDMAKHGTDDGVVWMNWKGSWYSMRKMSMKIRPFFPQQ
Chain of UniProt P02671 (P02679 27-453, chain 3 of 3, further chain): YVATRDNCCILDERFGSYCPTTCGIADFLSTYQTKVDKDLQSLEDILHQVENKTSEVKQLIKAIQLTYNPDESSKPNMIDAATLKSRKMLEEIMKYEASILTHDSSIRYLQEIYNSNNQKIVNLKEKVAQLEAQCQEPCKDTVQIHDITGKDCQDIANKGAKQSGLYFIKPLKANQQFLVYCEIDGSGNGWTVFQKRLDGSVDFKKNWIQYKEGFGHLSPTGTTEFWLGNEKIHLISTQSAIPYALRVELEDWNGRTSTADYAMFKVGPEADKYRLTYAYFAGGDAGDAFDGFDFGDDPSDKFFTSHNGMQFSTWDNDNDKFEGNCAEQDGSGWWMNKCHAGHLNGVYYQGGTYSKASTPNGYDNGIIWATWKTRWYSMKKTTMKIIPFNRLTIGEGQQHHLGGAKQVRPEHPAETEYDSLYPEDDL

**Q.** With Efb EfbA (from UniProt A6QG59) as the substance, how does the pKd read?
**A.** 6.00
